Laboratory results as given in US20260035426.

Chain of recombinant human MMP9 (chain, as listed by the source): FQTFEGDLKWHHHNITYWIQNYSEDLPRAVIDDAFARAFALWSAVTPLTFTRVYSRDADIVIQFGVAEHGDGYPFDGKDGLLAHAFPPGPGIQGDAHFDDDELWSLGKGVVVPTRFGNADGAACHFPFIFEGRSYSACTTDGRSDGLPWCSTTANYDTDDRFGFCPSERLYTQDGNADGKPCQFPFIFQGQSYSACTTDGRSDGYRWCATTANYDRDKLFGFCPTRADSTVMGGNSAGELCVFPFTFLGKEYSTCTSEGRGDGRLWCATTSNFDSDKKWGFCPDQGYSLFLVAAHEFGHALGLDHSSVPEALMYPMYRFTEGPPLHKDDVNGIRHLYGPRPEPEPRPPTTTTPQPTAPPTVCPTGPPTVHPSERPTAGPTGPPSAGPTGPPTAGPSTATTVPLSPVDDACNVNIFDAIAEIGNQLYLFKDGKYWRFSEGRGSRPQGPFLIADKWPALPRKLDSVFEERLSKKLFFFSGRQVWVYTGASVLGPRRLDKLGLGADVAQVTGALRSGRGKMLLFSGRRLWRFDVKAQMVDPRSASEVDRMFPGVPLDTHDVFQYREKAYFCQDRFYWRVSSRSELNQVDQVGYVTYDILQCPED
Chain of SB1902-C4 (chain, as listed by the source, chain 1 of 2): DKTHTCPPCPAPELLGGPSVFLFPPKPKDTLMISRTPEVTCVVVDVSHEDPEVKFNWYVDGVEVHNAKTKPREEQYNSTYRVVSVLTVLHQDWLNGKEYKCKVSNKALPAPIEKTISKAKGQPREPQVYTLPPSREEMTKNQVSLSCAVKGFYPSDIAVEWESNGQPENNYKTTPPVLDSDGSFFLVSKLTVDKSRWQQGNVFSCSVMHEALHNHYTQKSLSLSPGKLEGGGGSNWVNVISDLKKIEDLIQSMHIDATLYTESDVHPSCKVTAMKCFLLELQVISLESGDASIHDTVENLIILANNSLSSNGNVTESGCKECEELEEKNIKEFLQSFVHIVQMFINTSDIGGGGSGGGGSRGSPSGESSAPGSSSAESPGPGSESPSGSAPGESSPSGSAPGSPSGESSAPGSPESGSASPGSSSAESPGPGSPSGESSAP
Chain of SB1902-C4 (chain, as listed by the source, chain 2 of 2): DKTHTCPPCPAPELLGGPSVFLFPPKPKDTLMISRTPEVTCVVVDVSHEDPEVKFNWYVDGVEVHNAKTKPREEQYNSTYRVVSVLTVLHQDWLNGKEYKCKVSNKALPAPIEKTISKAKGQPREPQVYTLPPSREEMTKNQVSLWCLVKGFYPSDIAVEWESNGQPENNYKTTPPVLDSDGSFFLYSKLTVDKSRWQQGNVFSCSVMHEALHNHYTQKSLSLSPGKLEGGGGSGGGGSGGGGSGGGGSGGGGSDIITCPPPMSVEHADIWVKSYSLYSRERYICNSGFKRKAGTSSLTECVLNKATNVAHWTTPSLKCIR
Chain of SB1902-C2 (chain, as listed by the source, chain 1 of 2): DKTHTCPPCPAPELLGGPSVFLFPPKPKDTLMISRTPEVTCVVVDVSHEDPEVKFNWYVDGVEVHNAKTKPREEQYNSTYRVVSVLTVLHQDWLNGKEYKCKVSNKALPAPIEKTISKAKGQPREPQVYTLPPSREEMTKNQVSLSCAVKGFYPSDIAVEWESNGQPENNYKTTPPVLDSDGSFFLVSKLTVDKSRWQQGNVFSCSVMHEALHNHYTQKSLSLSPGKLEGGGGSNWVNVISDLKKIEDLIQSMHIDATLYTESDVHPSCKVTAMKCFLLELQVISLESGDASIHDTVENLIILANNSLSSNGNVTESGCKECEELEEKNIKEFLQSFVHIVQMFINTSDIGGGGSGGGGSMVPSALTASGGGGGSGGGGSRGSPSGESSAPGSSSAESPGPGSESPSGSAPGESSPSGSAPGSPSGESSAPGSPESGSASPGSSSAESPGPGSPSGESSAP
Chain of SB1902-C2 (chain, as listed by the source, chain 2 of 2): as the sequence (chain, as listed by the source, chain 2 of 2) above
Chain of SB1902-C5 (chain, as listed by the source, chain 1 of 2): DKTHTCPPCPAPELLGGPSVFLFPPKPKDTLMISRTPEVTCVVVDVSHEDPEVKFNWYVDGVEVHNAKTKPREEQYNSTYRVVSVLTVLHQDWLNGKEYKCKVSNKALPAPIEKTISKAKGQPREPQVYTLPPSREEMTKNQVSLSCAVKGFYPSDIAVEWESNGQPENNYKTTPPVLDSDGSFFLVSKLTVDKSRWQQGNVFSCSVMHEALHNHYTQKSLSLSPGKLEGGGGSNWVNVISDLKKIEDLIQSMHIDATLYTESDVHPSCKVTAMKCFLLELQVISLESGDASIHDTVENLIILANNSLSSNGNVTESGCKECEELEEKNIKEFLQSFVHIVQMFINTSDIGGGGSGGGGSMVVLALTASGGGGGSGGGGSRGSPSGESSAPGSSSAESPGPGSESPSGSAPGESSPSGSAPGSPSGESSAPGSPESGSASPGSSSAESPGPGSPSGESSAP
Chain of SB1902-C5 (chain, as listed by the source, chain 2 of 2): as the sequence (chain, as listed by the source, chain 2 of 2) above

recombinant human MMP9
in vitro protease digestion (data not shown) (CM10): The other cleavable moieties (such as CM2, CM5-CM10) was also cleavable in vitro by both MMP2 and MMP9 (data not shown)
in vitro protease digestion (data not shown) (CM2): The other cleavable moieties (such as CM2, CM5-CM10) was also cleavable in vitro by both MMP2 and MMP9 (data not shown)
in vitro protease digestion (data not shown) (CM5): The other cleavable moieties (such as CM2, CM5-CM10) was also cleavable in vitro by both MMP2 and MMP9 (data not shown)
in vitro protease digestion (data not shown) (CM6): The other cleavable moieties (such as CM2, CM5-CM10) was also cleavable in vitro by both MMP2 and MMP9 (data not shown)
in vitro protease digestion (data not shown) (CM7): The other cleavable moieties (such as CM2, CM5-CM10) was also cleavable in vitro by both MMP2 and MMP9 (data not shown)
in vitro protease digestion (data not shown) (CM8): The other cleavable moieties (such as CM2, CM5-CM10) was also cleavable in vitro by both MMP2 and MMP9 (data not shown)
in vitro protease digestion (data not shown) (CM9): The other cleavable moieties (such as CM2, CM5-CM10) was also cleavable in vitro by both MMP2 and MMP9 (data not shown)
in vitro protease digestion, polyacrylamide gel (SB1902-C2): The mutated substrate CM1 was cleavable in vitro by both MMP2 and MMP9 enzymes, with an enzyme dose-dependent manner
in vitro protease digestion, polyacrylamide gel (SB1902-C4): the non-cleavable G4S linker in SB1902-C4 was resistant to both MMP2 and MMP9 enzyme digestion
in vitro protease digestion, polyacrylamide gel (SB1902-C5): The mutated substrate CM4 was cleavable in vitro by both MMP2 and MMP9 enzymes, with an enzyme dose-dependent manner
